Assay results taken from publication PMC12881670, “Investigation into ligand selectivity and bias at the formyl peptide receptor family” (The Journal of Pharmacology and Experimental Therapeutics, 2025).
Where no end group is shown, it is not given here. The star is where a group is joined. For = O=C*

Assays:
Experiment in all cases: cell-based or functional assay
[1] = target: T1, FLAG-tagged human FPR2 (Hs_FPR2) (human, UniProt P25090 1-351)
T1 sequence (looked up): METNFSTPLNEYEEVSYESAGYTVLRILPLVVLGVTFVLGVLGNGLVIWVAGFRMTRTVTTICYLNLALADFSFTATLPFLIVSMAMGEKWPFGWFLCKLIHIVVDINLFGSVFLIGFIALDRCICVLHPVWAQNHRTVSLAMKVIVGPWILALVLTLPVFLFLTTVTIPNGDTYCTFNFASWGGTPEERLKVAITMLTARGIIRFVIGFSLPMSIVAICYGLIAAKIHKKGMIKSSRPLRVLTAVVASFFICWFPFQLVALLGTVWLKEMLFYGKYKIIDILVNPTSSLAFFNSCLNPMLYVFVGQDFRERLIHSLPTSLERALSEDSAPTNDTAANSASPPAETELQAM

[2] = target: T2, FLAG-tagged mouse Fpr1 (Mm_Fpr1) (mouse, UniProt P33766 1-364)
T2 sequence (looked up): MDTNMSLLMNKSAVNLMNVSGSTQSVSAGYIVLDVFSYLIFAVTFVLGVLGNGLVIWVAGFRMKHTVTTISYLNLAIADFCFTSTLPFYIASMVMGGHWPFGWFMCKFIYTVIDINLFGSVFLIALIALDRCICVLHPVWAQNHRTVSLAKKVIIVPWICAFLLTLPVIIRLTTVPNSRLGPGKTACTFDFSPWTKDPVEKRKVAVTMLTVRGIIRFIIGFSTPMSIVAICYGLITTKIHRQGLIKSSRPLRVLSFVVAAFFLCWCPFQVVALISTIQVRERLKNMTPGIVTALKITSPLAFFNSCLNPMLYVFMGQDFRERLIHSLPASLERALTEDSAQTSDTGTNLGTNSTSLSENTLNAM

[3] = target: T1, FLAG-tagged human FPR2 (Hs_FPR2); remark: listed apart in the source
[4] = target: T3, FLAG-Mm_Fpr1 C-terminally fused to Renilla Luciferase 8 (mouse, UniProt P33766 1-364)
T3 sequence (looked up): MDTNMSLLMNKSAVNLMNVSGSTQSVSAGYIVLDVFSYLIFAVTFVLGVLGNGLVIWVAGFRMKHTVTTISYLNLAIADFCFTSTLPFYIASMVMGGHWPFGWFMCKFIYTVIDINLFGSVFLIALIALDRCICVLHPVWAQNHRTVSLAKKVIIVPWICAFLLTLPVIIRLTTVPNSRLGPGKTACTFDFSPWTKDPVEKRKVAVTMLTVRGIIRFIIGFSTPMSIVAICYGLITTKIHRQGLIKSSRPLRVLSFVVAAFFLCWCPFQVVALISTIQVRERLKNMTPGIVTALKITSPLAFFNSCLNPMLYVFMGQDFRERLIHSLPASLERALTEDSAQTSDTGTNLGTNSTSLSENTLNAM

[5] = target: T4, FLAG-Mm_Fpr2 C-terminally fused to Renilla Luciferase 8 (mouse, UniProt O88536 1-351)
T4 sequence (looked up): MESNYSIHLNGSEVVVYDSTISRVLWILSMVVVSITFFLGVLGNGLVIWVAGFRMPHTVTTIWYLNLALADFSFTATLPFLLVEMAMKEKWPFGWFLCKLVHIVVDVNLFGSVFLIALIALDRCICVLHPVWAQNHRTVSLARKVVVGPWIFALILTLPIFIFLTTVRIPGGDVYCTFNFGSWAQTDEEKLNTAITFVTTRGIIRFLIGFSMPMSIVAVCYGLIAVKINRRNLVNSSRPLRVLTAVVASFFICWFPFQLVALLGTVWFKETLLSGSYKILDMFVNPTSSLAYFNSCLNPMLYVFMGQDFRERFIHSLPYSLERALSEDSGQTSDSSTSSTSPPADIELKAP

[6] = target: T5, FLAG-Hs_FPR2 C-terminally fused to Renilla Luciferase 8 (human, UniProt P25090 1-351)
T5 sequence (looked up): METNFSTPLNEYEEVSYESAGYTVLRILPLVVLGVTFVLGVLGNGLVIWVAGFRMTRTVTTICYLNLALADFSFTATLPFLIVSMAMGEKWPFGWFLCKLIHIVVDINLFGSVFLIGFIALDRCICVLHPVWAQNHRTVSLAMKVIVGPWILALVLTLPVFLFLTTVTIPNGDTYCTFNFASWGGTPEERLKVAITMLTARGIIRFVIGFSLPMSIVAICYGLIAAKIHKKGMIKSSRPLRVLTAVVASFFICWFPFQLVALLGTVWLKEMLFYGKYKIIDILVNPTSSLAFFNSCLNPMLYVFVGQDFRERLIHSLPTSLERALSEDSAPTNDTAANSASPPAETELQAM

[7] = target: T4, FLAG-Mm_Fpr2 C-terminally fused to …; remark: listed apart in the source
[8] = target: T5, FLAG-Hs_FPR2 C-terminally fused to …; remark: listed apart in the source
[9] = target: T6, FLAG-Hs_FPR1 C-terminally fused to Renilla Luciferase 8 (human, UniProt P21462 1-350)
T6 sequence (looked up): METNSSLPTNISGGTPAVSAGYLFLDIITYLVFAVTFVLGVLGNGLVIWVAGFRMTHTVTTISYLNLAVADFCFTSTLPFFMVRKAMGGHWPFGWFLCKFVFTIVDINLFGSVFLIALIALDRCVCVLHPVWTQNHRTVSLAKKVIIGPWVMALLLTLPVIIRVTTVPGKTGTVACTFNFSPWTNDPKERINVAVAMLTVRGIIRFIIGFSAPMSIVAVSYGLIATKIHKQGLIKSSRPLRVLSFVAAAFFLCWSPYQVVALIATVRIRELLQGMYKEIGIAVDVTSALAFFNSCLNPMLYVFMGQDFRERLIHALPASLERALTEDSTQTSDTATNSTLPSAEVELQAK

[10] = target: T6, FLAG-Hs_FPR1 C-terminally fused to …; remark: listed apart in the source
[11] = target: T3, FLAG-Mm_Fpr1 C-terminally fused to …; remark: listed apart in the source

For-MTPMRKINPLMKLIN [MCT-2 (Formyl-MTPMRKINPLMKLIN from Cytochrome b)]
receptor internalization (flow cytometry): Emax (% of 1 μM WKYMVm) [1]: 63.3% | receptor internalization (flow cytometry): Log EC50 (M) [1]: -6.87 log M | receptor internalization (flow cytometry): Emax (% of 1 μM WKYMVm) [2]: 7.39% | receptor internalization (flow cytometry): Log EC50 (M) [2]: -7.24 log M | ERK1/2 phosphorylation (Western blot): Emax (% of 1 μM WKYMVm) [3]: 93.9% | ERK1/2 phosphorylation (Western blot): Log EC50 (M) [3]: -6.72 log M | BRET of receptor-RLuc8 with Venus-mGsi: Emax (% of 1 μM WKYMVm) [4]: -8.19% | BRET of receptor-RLuc8 with Venus-mGsi: Log EC50 (M) [4]: -7.78 log M | BRET of receptor-RLuc8 with Venus-mGsi: Emax (% of 1 μM WKYMVm) [5]: 25% | BRET of receptor-RLuc8 with Venus-mGsi: Log EC50 (M) [5]: -4.77 log M | BRET of receptor-RLuc8 with Venus-mGsi: Emax (% of 1 μM WKYMVm) [6]: 44.4% | BRET of receptor-RLuc8 with Venus-mGsi: Log EC50 (M) [6]: -6.23 log M | BRET of receptor-RLuc8 with Arrestin 3-YFP: Emax (% of 1 μM WKYMVm) [7]: 12.1% | BRET of receptor-RLuc8 with Arrestin 3-YFP: Log EC50 (M) [7]: -10.3 log M | BRET of receptor-RLuc8 with Arrestin 3-YFP: Emax (% of 1 μM WKYMVm) [8]: 51.8% | BRET of receptor-RLuc8 with Arrestin 3-YFP: Log EC50 (M) [8]: -6.06 log M

For-Met-Leu-Phe [fMet-Leu-Phe (fMLF)]
BRET of receptor-RLuc8 with Venus-mGsi: Emax (% of 1 μM WKYMVm) [9]: 115% | BRET of receptor-RLuc8 with Venus-mGsi: Log EC50 (M) [9]: -6.47 log M | BRET of receptor-RLuc8 with Venus-mGsi: Emax (% of 1 μM WKYMVm) [4]: 59.3% | BRET of receptor-RLuc8 with Venus-mGsi: Log EC50 (M) [4]: -4.93 log M | BRET of receptor-RLuc8 with Venus-mGsi: Emax (% of 1 μM WKYMVm) [5]: 13.2% | BRET of receptor-RLuc8 with Venus-mGsi: Log EC50 (M) [5]: -4.58 log M | BRET of receptor-RLuc8 with Venus-mGsi: Emax (% of 1 μM WKYMVm) [6]: 61.7% | BRET of receptor-RLuc8 with Venus-mGsi: Log EC50 (M) [6]: -4.05 log M | BRET of receptor-RLuc8 with Arrestin 3-YFP: Emax (% of 1 μM WKYMVm) [10]: 97% | BRET of receptor-RLuc8 with Arrestin 3-YFP: Log EC50 (M) [10]: -7.08 log M | BRET of receptor-RLuc8 with Arrestin 3-YFP: Emax (% of 1 μM WKYMVm) [11]: 83.4% | BRET of receptor-RLuc8 with Arrestin 3-YFP: Log EC50 (M) [11]: -4.68 log M | BRET of receptor-RLuc8 with Arrestin 3-YFP: Emax (% of 1 μM WKYMVm) [7]: 22.7% | BRET of receptor-RLuc8 with Arrestin 3-YFP: Log EC50 (M) [7]: -4.71 log M
